Experimental findings from US20110052597A1 are described below.

Assay [1] deals with T1, cynomolgus IL-13Rα1.ECR, N-terminal FLAG-tagged fusion protein (cynomolgus macaque).
T1 sequence: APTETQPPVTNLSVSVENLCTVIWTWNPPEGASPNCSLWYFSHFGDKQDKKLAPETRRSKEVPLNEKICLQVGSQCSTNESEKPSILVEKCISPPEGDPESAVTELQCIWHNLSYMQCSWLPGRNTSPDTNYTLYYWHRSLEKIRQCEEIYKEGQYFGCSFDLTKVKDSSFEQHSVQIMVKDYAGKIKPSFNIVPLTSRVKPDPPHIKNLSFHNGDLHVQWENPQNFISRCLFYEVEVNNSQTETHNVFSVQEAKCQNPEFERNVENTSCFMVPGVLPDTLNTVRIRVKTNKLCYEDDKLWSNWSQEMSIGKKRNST
Kind of assay: BIACORE, receptor ECR immobilized on CM5 chip, mAb in solution.

The target of assay [2] is N-terminal FLAG-tagged fusion protein including most of the extracellular region of human IL-13Rα1 (human) (UniProt P78552). The assay is described as above.

By Kd is commonly meant a measure of binding affinity in units of concentration. A low value points to tighter binding.

B1: murine antibody 1D9 reported in WO 03/080675 (ECACC deposit 03032101) (antibody, from another filing, V domains shown)
VH: EVKLVESGGGLVKPGGSLKLSCAASGFTFSGYGMSWVRQTPEKRLEWVATISGLGGYTYYPDSVKGRFTISRDNAKNTLYLQMSSLRSDDTAFYYCARRFYGDYVGAMDYWGQGTSVTVSS
VL: DILMTQAAFSNPVTLGTSASISCRSSKSLLHSNGITYLYWYLQKPGQSPQLLIYQMSNLASGVPDRFSCSGSGTDFTLSISRVEAEDVGFYYCAQNLELPFTFGSGTKLEIE
With B1, the Kd in assay [1] was 0.247 nM; in assay [2], 0.207 nM.
